Test results: publication PMC12514038 (2025)
Where two headings read alike, the source gives them in different places.

B1: hmMM1-40, humanized mMM1-40 monoclonal antibody (antibody, V domains shown)
VH: QVQLVQSGAEVKKPGASVKVSCKASGYIFTRYWMHWVRQAPGQGLEWMGYINPSTGYTEYNQKFKDRVTMTRDTSTSTVYMELSSLRSEDTAVYYCARSDYTNYVFEYWGQGTLVTVSS
VL: DVVMTQSPLSLPVTLGQPASISCRSSQSLVHSNGNTYLHWFQQRPGQSPRRLIYKVSNRFSGVPDRFSGSGSGTDFTLKISRVEAEDVGVYYCSQSTHVPYTFGGGTKVEIK
B2: mMM1-16 monoclonal antibody (mouse variable regions, human IgG1/Igκ constant regions) (antibody, V domains shown)
VH: QIQLQQSGAELARPGASVKLSCKASGYTFITYWIQWVKQRPGQGLEWIGAIYPGDGDTRYTQKFKAKATLTADKSSSTAYMQLSTLTSEDSAVYFCAKGDTYPAAMDYWGQGTSVTVSS
VL: DIQMTQSPASLSASVGETVTITCRTSGNIHNYLAWYQQKQGRSPQLLVNNAKTLADGVPSRFSGSGSGTQYSLKINSLQPEDIGSYYCQHFWITPYTFGGGTKLEIK

Experiments:
Experiment in all cases: SPR
VACV , residues A3-G181 [1] = target: T1, VACV , residues A3-G181 (vaccinia virus (VACV), UniProt P07612 3-181)
[2] = target: T2, MPXV [change], residues A3-G181, C-terminal 6×His tag (pCAGGS, Expi293F) (mpox virus (MPXV))
VACV , residues A3-G181 [3] = target: T1, VACV , residues A3-G181; remark: listed apart in the source
[4] = target: T2, MPXV [change], residues A3-G181, …; remark: listed apart in the source
VACV , residues A3-G181 [5] = target: T1, VACV , residues A3-G181; remark: listed apart in the source

Row | Binder | koff (VACV , residues A3-G181 [1]) [s⁻¹] | Kd [2] [nM] | Kd (VACV , residues A3-G181 [3]) [nM] | Kd [4] [nM] | Kd (VACV , residues A3-G181 [5]) [nM]
1 | B1 | 6.19e-05 | 0.48 | 0.47 |  | 
2 | B2 |  |  |  | 6.3 | 0.72
